Reference: US11504441B2, “Radiolabeled compounds targeting the prostate-specific membrane antigen” (PROVINCIAL HEALTH SERVICES AUTHORITY, priority 2019, dated 2022)

Assays:
[1] = tested on: PSMA-expressing LNCaP cancer xenografts; set-up: species or system mice; conditions: mouse, in vivo, iv
Experimental: (§1) Imaging and biodistribution experiments were performed using NODSCID 1 L2RγKO male mice. Mice were anesthetized by inhalation with 2% isoflurane in oxygen, and implanted subcutaneously with 1×10^7 LNCaP cells behind left shoulder. Mice were imaged or used in biodistribution studies when the tumor grew up to reach 5-8 mm in diameter during 5-6 weeks.
PET imaging experiments were conducted using Siemens Inveon micro PET/CT scanner. Each tumor bearing mouse was injected 6-8 MBq of Ga-68 labeled tracer through the tail vein under anesthesia (2% isoflurane in oxygen). The mice were allowed to recover and roam freely in their cage. After 50 min, the mice were sedated again with 2% isoflurane in oxygen inhalation and positioned in the scanner. […] Then, a 10-min static PET imaging was performed to determined uptake in tumor and other organs. […] The collected organs/tissues were weighed and counted using a Perkin Elmer (Waltham, Mass.) Wizard2 2480 gamma counter. The uptake in each organ/tissue was normalized to the injected dose using a standard curve, and expressed as the percentage of the injected dose per gram of tissue (% ID/g). […]
PET imaging experiments were conducted using Siemens Inveon micro PET/CT scanner. […] Then, a 10-min static PET imaging was performed to determined uptake in tumor and other organs.

[2] = tested on: PSMA-expressing LNCaP cancer xenografts; conditions: mouse, in vivo
Experimental: (§2) LNCaP cell line was obtained from ATCC (LNCaP clone FGC, CRL-1740). […] Cells were cultured in PRM I 1640 medium supplemented with 10% FBS, penicillin (100 U/mL) and streptomycin (100 μg/mL) at 37° C. in a humidified incubator containing 5% CO2. Cells grown to 80-90% confluence were then washed with sterile phosphate-buffered saline (1× PBS pH 7.4) and collected by trypsinization. The collected cells concentration was counted with a Hausser Scientific (Horsham, Pa.) Hemacytometer.
as §1
(§3) PET imaging experiments were conducted using Siemens Inveon micro PET/CT scanner. Each tumor bearing mouse was injected 6-8 MBq of Ga-68 labeled tracer through the tail vein under anesthesia (2% isoflurane in oxygen). The mice were allowed to recover and roam freely in their cage. After 50 min, the mice were sedated again with 2% isoflurane in oxygen inhalation and positioned in the scanner. A 10-min CT scan was conducted first for localization and attenuation correction after segmentation for reconstructing the PET images. Then, a 10-min static PET imaging was performed to determined uptake in tumor and other organs. The mice were kept warm by a heating pad during acquisition. For biodistribution studies, the mice were injected with the radiotracer as described above. The mice was anesthetized with 2% isoflurane inhalation, and euthanized by CO2 inhalation. Blood was withdrawn immediately from the heart, and the organs/tissues of interest were collected. The collected organs/tissues were weighed and counted using a Perkin Elmer (Waltham, Mass.) Wizard2 2480 gamma counter. The uptake in each organ/tissue was normalized to the injected dose using a standard curve, and expressed as the percentage of the injected dose per gram of tissue (% ID/g).
(§4) LNCaP cell line was obtained from ATCC (LNCaP clone FGC, CRL-1740). […] Cells were cultured in PRM I 1640 medium supplemented with 10% FBS, penicillin (100 U/mL) and streptomycin (100 μg/mL) at 37° C. in a humidified incubator containing 5% CO2. Cells grown to 80-90% confluence were then washed with sterile phosphate-buffered saline (1× PBS pH 7.4), and collected by trypsinization. The collected cell concentration was counted with a Hausser Scientific (Horsham, Pa.) Hemacytometer.
(§5) Imaging and biodistribution experiments were performed using NODSCID 1L2RγKO male mice. Mice were anesthetized by inhalation with 2% isoflurane in oxygen, and implanted subcutaneously with 1×10^7 LNCaP cells behind left shoulder. Mice were imaged or used in biodistribution studies when the tumor grew up to reach 5-8 mm in diameter during 5-6 weeks.
(§6) PET imaging experiments were conducted using Siemens Inveon micro PET/CT scanner. Each tumor bearing mouse was injected 6-8 MBq of Ga-68 or F-18 labeled tracer through the tail vein under anesthesia (2% isoflurane in oxygen). The mice were allowed to recover and roam freely in their cage. After 50 min, the mice were sedated again with 2% isoflurane in oxygen inhalation and positioned in the scanner. A 10-min CT scan was conducted first for localization and attenuation correction after segmentation for reconstructing the PET images. Then, a 10-min static PET imaging was performed to determined uptake in tumor and other organs.
(§7) For biodistribution studies, the mice were injected with the radiotracer as described above.

[3] = in vivo; conditions: male, NODSCID 1L2RγKO, mouse, iv, total radioactivity
Experimental: as §2, §1, §3, §4, §5, §6, §7

## O=C(O)CCC[C@H](NC(=O)N[C@@H](CCCCNC(=O)[C@H](Cc1c2ccccc2cc2ccccc12)NC(=O)[C@H]1CC[C@H](CNC(=O)CN2CCN(CC(=O)O)CCN(CC(=O)O)CCN(CC(=O)O)CC2)CC1)C(=O)O)C(=O)O [68Ga-HTK03149, metal not drawn]
[1]
  activity in other organs in PET images: very low activity in other organs
[2]; male, NODSCID 1L2RγKO, iv, 1 h
  Adrenal glands uptake: 0.33 ± 0.11 % ID/g
  Blood uptake: 0.70 ± 0.17 % ID/g
  Kidneys uptake: 4.15 ± 1.46 % ID/g
  Liver uptake: 0.25 ± 0.06 % ID/g
  Lungs uptake: 0.53 ± 0.09 % ID/g
  Seminal uptake: 3.66 ± 5.36 % ID/g
  Spleen uptake: 0.27 ± 0.05 % ID/g
  Stomach uptake: 0.07 ± 0.01 % ID/g
  Tail uptake: 0.58 ± 0.14 % ID/g
  Thyroid uptake: 0.20 ± 0.05 % ID/g
  Tumor uptake: 19.1 ± 6.37 % ID/g
  Urine uptake: 319 ± 183 % ID/g
[2]
  Blood: Salivary ratio: 3.21 ± 0.64
[3]; Adrenal glands uptake
  tissue uptake at 1 h: 0.46 ± 0.26 %ID/g
  tissue uptake at 3 h: 0.46 ± 0.16 %ID/g
[3]; Blood uptake
  tissue uptake at 1 h: 0.96 ± 0.17 %ID/g
  tissue uptake at 3 h: 0.35 ± 0.14 %ID/g
[3]; Bone uptake
  tissue uptake at 1 h: 0.1 ± 0.03 %ID/g
[3]; Brain uptake
  tissue uptake at 1 h: 0.02 ± 0.01 %ID/g
  tissue uptake at 3 h: 0.02 ± 0.01 %ID/g
[3]; Fat uptake
  tissue uptake at 1 h: 0.22 ± 0.16 %ID/g
  tissue uptake at 3 h: 0.16 ± 0.09 %ID/g
[3]; Heart uptake
  tissue uptake at 1 h: 0.29 ± 0.07 %ID/g
  tissue uptake at 3 h: 0.09 ± 0.02 %ID/g
[3]; Intestine uptake
  tissue uptake at 1 h: 0.3 ± 0.07 %ID/g
  tissue uptake at 3 h: 0.18 ± 0.04 %ID/g
[3]; Kidneys uptake
  tissue uptake at 1 h: 6.79 ± 4.91 %ID/g
  tissue uptake at 3 h: 2.33 ± 1.02 %ID/g
[3]; Lacrimal uptake
  tissue uptake at 1 h: 0.1 ± 0.03 %ID/g
  tissue uptake at 3 h: 0.21 ± 0.2 %ID/g
[3]; Liver uptake
  tissue uptake at 1 h: 0.35 ± 0.17 %ID/g
  tissue uptake at 3 h: 0.13 ± 0.02 %ID/g
[3]; Lungs uptake
  tissue uptake at 1 h: 0.82 ± 0.37 %ID/g
  tissue uptake at 3 h: 0.22 ± 0.05 %ID/g
[3]; Muscle uptake
  tissue uptake at 1 h: 0.14 ± 0.04 %ID/g
  tissue uptake at 3 h: 0.05 ± 0.02 %ID/g
[3]; Pancreas uptake
  tissue uptake at 1 h: 0.17 ± 0.03 %ID/g
  tissue uptake at 3 h: 0.06 ± 0.02 %ID/g
[3]; Salivary uptake
  tissue uptake at 1 h: 0.23 ± 0.05 %ID/g
  tissue uptake at 3 h: 0.15 ± 0.13 %ID/g
[3]; Seminal uptake
  tissue uptake at 1 h: 6.46 ± 7.52 %ID/g
  tissue uptake at 3 h: 1.19 ± 1.04 %ID/g
[3]; Spleen uptake
  tissue uptake at 1 h: 0.37 ± 0.12 %ID/g
  tissue uptake at 3 h: 0.24 ± 0.07 %ID/g
[3]; Stomach uptake
  tissue uptake at 1 h: 0.09 ± 0.04 %ID/g
  tissue uptake at 3 h: 0.03 ± 0.01 %ID/g
[3]; Tail uptake
  tissue uptake at 1 h: 0.86 ± 0.47 %ID/g
  tissue uptake at 3 h: 0.13 ± 0.06 %ID/g
[3]; Testes uptake
  tissue uptake at 1 h: 0.38 ± 0.16 %ID/g
  tissue uptake at 3 h: 0.11 ± 0.03 %ID/g
[3]; Thyroid uptake
  tissue uptake at 1 h: 0.29 ± 0.08 %ID/g
  tissue uptake at 3 h: 0.1 ± 0.04 %ID/g
[3]; Tumor uptake
  tissue uptake at 1 h: 22.1 ± 13.9 %ID/g
  tissue uptake at 3 h: 33.5 ± 10.7 %ID/g
[3]; Urine uptake
  excreta dose per gram or mL at 1 h: 336 ± 127 %ID/g
  excreta dose per gram or mL at 3 h: 148 ± 102 %ID/g
